Experimental data: patent US20170051281A1 (TRUSTEES OF COLUMBIA UNIVERSITY IN THE CITY OF NEW YORK, published 2017)

Target: T1, Centromere protein F (CENPF) (human, UniProt P49454 1-3111, limits assumed)
T1 construct: also called CENF; PRO 1779
Test: co-immunoprecipitation

T1 sequence (P49454 1-3111 limits assumed): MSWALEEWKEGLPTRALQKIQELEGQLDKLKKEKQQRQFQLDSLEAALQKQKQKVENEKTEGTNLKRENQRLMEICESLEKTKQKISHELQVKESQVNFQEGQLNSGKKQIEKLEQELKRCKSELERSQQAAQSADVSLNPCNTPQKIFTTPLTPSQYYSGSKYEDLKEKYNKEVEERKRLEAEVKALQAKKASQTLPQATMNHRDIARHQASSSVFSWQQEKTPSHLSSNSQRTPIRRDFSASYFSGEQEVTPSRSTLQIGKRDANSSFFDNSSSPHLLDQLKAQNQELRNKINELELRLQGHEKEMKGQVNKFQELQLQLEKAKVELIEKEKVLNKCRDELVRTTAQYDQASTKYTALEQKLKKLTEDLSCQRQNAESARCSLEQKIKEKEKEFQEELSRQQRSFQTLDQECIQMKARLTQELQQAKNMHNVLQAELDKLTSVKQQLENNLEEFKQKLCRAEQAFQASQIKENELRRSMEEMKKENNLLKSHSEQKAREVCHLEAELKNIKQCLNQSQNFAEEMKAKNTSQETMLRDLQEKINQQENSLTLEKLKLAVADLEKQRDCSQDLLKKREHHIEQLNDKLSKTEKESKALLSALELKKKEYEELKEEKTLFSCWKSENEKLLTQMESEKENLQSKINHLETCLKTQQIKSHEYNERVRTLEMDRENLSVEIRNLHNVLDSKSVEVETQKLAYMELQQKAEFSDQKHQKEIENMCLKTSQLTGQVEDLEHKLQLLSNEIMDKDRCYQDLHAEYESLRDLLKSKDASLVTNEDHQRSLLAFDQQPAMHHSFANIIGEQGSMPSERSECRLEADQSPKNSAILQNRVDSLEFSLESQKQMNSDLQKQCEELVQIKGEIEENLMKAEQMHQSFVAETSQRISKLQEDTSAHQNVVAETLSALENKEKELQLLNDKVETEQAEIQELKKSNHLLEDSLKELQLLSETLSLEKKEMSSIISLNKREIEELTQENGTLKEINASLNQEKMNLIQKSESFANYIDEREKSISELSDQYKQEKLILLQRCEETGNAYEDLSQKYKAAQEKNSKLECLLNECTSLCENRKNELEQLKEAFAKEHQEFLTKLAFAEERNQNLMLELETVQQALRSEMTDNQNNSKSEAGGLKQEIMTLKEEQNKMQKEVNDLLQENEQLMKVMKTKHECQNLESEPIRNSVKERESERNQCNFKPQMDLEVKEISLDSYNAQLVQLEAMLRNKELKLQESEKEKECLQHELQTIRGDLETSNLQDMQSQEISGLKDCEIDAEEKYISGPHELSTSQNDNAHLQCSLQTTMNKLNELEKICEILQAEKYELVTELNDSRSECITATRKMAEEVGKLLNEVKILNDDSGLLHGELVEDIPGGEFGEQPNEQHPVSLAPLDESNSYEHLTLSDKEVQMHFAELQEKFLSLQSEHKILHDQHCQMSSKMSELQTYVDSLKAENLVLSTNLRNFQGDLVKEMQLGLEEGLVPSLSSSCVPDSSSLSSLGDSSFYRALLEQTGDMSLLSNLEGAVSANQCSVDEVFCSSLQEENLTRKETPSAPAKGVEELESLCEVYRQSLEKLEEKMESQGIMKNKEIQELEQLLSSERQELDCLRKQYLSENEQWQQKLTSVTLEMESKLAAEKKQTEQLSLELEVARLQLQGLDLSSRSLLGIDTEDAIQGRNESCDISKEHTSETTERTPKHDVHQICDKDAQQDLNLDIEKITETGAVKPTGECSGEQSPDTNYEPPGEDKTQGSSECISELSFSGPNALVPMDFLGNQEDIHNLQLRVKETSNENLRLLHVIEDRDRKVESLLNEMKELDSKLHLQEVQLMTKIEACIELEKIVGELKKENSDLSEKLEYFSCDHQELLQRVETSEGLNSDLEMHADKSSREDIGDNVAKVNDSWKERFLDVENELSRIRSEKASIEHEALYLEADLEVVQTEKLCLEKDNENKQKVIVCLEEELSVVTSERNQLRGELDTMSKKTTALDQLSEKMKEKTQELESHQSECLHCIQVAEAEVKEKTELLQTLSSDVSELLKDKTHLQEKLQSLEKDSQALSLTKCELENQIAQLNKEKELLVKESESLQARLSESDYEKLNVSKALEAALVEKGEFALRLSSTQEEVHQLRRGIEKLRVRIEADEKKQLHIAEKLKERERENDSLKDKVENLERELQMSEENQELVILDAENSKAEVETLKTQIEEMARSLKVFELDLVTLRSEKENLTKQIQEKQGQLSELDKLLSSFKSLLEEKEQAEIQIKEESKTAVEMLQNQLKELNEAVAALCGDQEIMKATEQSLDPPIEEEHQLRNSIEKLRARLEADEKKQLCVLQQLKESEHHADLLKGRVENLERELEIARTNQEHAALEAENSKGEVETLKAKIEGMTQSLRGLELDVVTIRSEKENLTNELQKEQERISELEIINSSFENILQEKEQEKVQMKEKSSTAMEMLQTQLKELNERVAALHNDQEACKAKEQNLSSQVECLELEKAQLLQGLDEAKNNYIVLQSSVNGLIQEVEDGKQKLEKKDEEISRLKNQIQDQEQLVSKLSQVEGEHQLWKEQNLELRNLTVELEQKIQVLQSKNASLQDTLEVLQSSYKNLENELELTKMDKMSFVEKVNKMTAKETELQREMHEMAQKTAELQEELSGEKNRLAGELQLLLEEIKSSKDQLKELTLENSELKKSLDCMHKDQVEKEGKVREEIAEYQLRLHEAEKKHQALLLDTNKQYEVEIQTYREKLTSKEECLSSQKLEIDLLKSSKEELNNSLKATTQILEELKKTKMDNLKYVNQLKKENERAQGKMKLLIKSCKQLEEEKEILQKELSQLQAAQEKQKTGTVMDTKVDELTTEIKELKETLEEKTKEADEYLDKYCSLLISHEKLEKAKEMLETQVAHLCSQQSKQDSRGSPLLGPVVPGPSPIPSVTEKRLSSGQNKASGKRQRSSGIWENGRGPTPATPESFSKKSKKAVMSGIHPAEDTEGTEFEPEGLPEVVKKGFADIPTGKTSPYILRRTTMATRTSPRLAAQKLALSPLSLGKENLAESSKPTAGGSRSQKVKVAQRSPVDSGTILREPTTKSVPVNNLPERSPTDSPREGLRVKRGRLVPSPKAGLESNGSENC

binding result: no binding
B1: Forkhead box protein M1 (FOXM1) (other)
chain: MKTSPRRPLILKRRRLPLPVQNAPSETSEEEPKRSPAQQESNQAEASKEVAESNSCKFPAGIKIINHPTMPNTQVVAIPNNANIHSIITALTAKGKESGSSGPNKFILISCGGAPTQPPGLRPQTQTSYDAKRTEVTLETLGPKPAARDVNLPRPPGALCEQKRETCDGEAAGCTINNSLSNIQWLRKMSSDGLGSRSIKQEMEEKENCHLEQRQVKVEEPSRPSASWQNSVSERPPYSYMAMIQFAINSTERKRMTLKDIYTWIEDHFPYFKHIAKPGWKNSIRHNLSLHDMFVRETSANGKVSFWTIHPSANRYLTLDQVFKQQQKRPNPELRRNMTIKTELPLGARRKMKPLLPRVSSYLVPIQFPVNQSLVLQPSVKVPLPLAASLMSSELARHSKRVRIAPKVLLAEEGIAPLSSAGPGKEEKLLFGEGFSPLLPVQTIKEEEIQPGEEMPHLARPIKVESPPLEEWPSPAPSFKEESSHSWEDSSQSPTPRPKKSYSGLRSPTRCVSEMLVIQHRERRERSRSRRKQHLLPPCVDEPELLFSEGPSTSRWAAELPFPADSSDPASQLSYSQEVGGPFKTPIKETLPISSTPSKSVLPRTPESWRLTPPAKVGGLDFSPVQTSQGASDPLPDPLGLMDLSTTPLQSAPPLESPQRLLSSEPLDLISVPFGNSSPSDIDVPKPGSPEPQVSGLAANRSLTEGLVLDTMNDSLSKILLDISFPGLDEDPLGPDNINWSQFIPELQ
notes: also called FKHL16; FOXM1B
